# Measured values as given in patent US12534531 (MacroGenics, dated 2026).
# T1: biotinylated-soluble human LAG-3-Fc fusion protein (human, UniProt P18627 23-450, biotinylated (site not stated))
# T1 construct: whole entry named; also called shLAG-3; shLAG-3-Fc; not shown: Fc
# T1 sequence: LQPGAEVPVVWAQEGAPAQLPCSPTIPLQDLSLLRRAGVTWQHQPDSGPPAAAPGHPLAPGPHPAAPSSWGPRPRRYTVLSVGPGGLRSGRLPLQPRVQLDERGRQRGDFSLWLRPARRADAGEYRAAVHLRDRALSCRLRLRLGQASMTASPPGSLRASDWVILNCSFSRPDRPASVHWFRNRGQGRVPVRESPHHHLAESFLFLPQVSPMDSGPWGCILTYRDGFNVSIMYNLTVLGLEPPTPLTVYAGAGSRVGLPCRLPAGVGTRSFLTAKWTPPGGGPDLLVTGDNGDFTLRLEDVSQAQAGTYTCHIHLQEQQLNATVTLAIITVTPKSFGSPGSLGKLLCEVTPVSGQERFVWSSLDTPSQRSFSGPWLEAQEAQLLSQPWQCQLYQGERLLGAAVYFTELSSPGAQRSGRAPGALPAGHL
# T2: human LAG-3 expressed on NSO cells (human, UniProt P18627 29-525)
# T2 sequence: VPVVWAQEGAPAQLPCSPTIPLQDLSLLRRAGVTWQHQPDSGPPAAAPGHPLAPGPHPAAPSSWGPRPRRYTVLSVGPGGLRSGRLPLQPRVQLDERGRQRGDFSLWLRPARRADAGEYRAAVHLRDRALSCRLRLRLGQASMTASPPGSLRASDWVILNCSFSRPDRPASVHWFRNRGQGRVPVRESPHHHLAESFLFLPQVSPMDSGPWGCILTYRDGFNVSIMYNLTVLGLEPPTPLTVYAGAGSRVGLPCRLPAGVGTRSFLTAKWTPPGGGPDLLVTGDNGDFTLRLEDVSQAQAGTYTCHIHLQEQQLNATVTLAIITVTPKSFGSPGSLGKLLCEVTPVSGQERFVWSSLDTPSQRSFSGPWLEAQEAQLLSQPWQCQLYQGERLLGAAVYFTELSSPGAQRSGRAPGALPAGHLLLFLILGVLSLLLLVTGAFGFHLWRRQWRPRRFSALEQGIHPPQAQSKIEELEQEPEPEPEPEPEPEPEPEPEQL
# Key:
# [1] = target: T3, human PD-1 expressed on the surface of cells (NSO cells expressing human PD-1; MNFAT-luc2/PD-1 Jurkat cells) (human, UniProt Q15116 21-288); experiment: FACS saturation binding to NSO cells expressing PD-1; single experiment
# T3 construct: also called cell surface PD-1; PDCD1 transfected NSO cells expressing PD-1
# [2] = target: T3, human PD-1 expressed on the surface of …; experiment: FACS: inhibition of sPD-L1 binding to PD-1 on NSO cells; SM; SD 0.1729
# [3] = target: T3, human PD-1 expressed on the surface of …; experiment: FACS: inhibition of sPD-L2 binding to PD-1 on NSO cells; SM; SD 0.0846
# [4] = target: T1, biotinylated-soluble human LAG-3-Fc …; experiment: FACS: inhibition of shLAG-3-Fc binding to MHC II on Daudi cells (column head prints EC50); SM; SD 1.2674
# [5] = target: T2, human LAG-3 expressed on NSO cells; experiment: FACS saturation binding to NSO cells expressing LAG-3; SM; SD 0.5770
# [6] = target: T2, human LAG-3 expressed on NSO cells; experiment: FACS saturation binding to NSO cells expressing LAG-3; SM; SD 0.8075
# [7] = target: T1, biotinylated-soluble human LAG-3-Fc …; experiment: FACS: inhibition of shLAG-3-Fc binding to MHC II on Daudi cells (column head prints EC50); SM; SD 2.9177
# [8] = target: T3, human PD-1 expressed on the surface of …; experiment: FACS: inhibition of sPD-L2 binding to PD-1 on NSO cells; SM; SD 0.7736
# [9] = target: T3, human PD-1 expressed on the surface of …; experiment: FACS saturation binding to NSO cells expressing PD-1; SM; SD 0.5742
# [10] = target: T3, human PD-1 expressed on the surface of …; experiment: FACS: inhibition of sPD-L1 binding to PD-1 on NSO cells; SM; SD 0.3307
# T3 sequence (Q15116 21-288): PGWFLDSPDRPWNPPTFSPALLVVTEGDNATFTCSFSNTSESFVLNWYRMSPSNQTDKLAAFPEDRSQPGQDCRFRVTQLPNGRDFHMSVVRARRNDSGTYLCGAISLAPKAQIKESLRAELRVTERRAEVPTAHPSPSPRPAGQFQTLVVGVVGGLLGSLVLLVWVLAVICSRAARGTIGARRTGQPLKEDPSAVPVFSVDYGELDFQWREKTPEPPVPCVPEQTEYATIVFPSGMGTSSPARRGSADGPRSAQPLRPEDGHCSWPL
Binder,EC50 [1],EC90 [1],IC50 [2],IC50 [3],IC50 [4],EC50 [5],EC50 [6],IC50 [7],IC50 [8],EC50 [9],IC50 [10]
"DART F (bispecific antibody, human IgG1, kappa, L234A L235A) chain 1: QVQLVQSGAEVKKPGASVKVSCKASGYSFTSYWMNWVRQAPGQGLEWIGVIHPSDSETWLDQKFKDRVTITVDKSTSTAYMELSSLRSEDTAVYYCAREHYGTSPFAYWGQGTLVTVSSASTKGPSVFPLAPSSKSTSGGTAALGCLVKDYFPEPVTVSWNSGALTSGVHTFPAVLQSSGLYSLSSVVTVPSSSLGTQTYICNVNHKPSNTKVDKRVEPKSCDKTHTCPPCPAPEAAGGPSVFLFPPKPKDTLYITREPEVTCVVVDVSHEDPEVKFNWYVDGVEVHNAKTKPREEQYNSTYRVVSVLTVLHQDWLNGKEYKCKVSNKALPAPIEKTISKAKGQPREPQVYTLPPSREEMTKNQVSLSCAVKGFYPSDIAVEWESNGQPENNYKTTPPVLDSDGSFFLVSKLTVDKSRWQQGNVFSCSVMHEALHAKYTQKSLSLSPG chain 2: EIVLTQSPATLSLSPGERATLSCRASESVDNYGMSFMNWFQQKPGQPPKLLIHAASNQGSGVPSRFSGSGSGTDFTLTISSLEPEDFAVYFCQQSKEVPYTFGGGTKVEIKRTVAAPSVFIFPPSDEQLKSGTASVVCLLNNFYPREAKVQWKVDNALQSGNSQESVTEQDSKDSTYSLSSTLTLSKADYEKHKVYACEVTHQGLSSPVTKSFNRGEC chain 3: QVQLVQSGAEVKKPGASVKVSCKASGYSFTSYWMNWVRQAPGQGLEWIGVIHPSDSETWLDQKFKDRVTITVDKSTSTAYMELSSLRSEDTAVYYCAREHYGTSPFAYWGQGTLVTVSSASTKGPSVFPLAPSSKSTSGGTAALGCLVKDYFPEPVTVSWNSGALTSGVHTFPAVLQSSGLYSLSSVVTVPSSSLGTQTYICNVNHKPSNTKVDKRVEPKSCDKTHTCPPCPAPEAAGGPSVFLFPPKPKDTLYITREPEVTCVVVDVSHEDPEVKFNWYVDGVEVHNAKTKPREEQYNSTYRVVSVLTVLHQDWLNGKEYKCKVSNKALPAPIEKTISKAKGQPREPQVYTLPPSREEMTKNQVSLWCLVKGFYPSDIAVEWESNGQPENNYKTTPPVLDSDGSFFLYSKLTVDKSRWQQGNVFSCSVMHEALHNHYTQKSLSLSPGGGGSGGGSGGGDIVMTQTPLSLSVTPGQPASISCKSSQSLLHSDAKTYLNWLLQKPGQPPERLIYLVSELDSGVPDRFSGSGSGTDFTLKISRVEAEDVGVYYCWQGTHFPYTFGGGTKVEIKGGGSGGGGQVQLVQSGAEVKKPGASVKVSCKASGYSFTSYWMNWVRQAPGQGLEWIGVIHPSDSETWLDQKFKDRVTITVDKSTSTAYMELSSLRSEDTAVYYCAREHYGTSPFAYWGQGTLVTVSSGGCGGGEVAALEKEVAALEKEVAALEKEVAALEK chain 4: EIVLTQSPATLSLSPGERATLSCRASESVDNYGMSFMNWFQQKPGQPPKLLIHAASNQGSGVPSRFSGSGSGTDFTLTISSLEPEDFAVYFCQQSKEVPYTFGGGTKVEIKGGGSGGGGQVQLVQSGAEVKKPGASVKVSCKASGYTFTNYGMNWVRQAPGQGLEWMGWINTYTGESTYADDFEGRFVFSMDTSASTAYLQISSLKAEDTAVYYCARESLYDYYSMDYWGQGTTVTVSSGGCGGGKVAALKEKVAALKEKVAALKEKVAALKE",1.43 µM,14.6 µM,0.57 µM,0.839 µM,1.53 µM,5.01 µM,–,–,–,–,–
"DART E (bispecific antibody, human IgG4 S228P, kappa) chain 1: DIVMTQTPLSLSVTPGQPASISCKSSQSLLHSDAKTYLNWLLQKPGQPPERLIYLVSELDSGVPDRFSGSGSGTDFTLKISRVEAEDVGVYYCWQGTHFPYTFGGGTKVEIKGGGSGGGGQVQLVQSGAEVKKPGASVKVSCKASGYSFTSYWMNWVRQAPGQGLEWIGVIHPSDSETWLDQKFKDRVTITVDKSTSTAYMELSSLRSEDTAVYYCAREHYGTSPFAYWGQGTLVTVSSLGGGSGASTKGPSVFPLAPCSRSTSESTAALGCLVKDYFPEPVTVSWNSGALTSGVHTFPAVLQSSGLYSLSSVVTVPSSSLGTKTYTCNVDHKPSNTKVDKRVESKYGPPCPPCPAPEFLGGPSVFLFPPKPKDTLYITREPEVTCVVVDVSQEDPEVQFNWYVDGVEVHNAKTKPREEQFNSTYRVVSVLTVLHQDWLNGKEYKCKVSNKGLPSSIEKTISKAKGQPREPQVYTLPPSQEEMTKNQVSLTCLVKGFYPSDIAVEWESNGQPENNYKTTPPVLDSDGSFFLYSRLTVDKSRWQEGNVFSCSVMHEALHNHYTQKSLSLSLG chain 2: EIVLTQSPATLSLSPGERATLSCRASESVDNYGMSFMNWFQQKPGQPPKLLIHAASNQGSGVPSRFSGSGSGTDFTLTISSLEPEDFAVYFCQQSKEVPYTFGGGTKVEIKGGGSGGGGQVQLVQSGAEVKKPGASVKVSCKASGYTFTNYGMNWVRQAPGQGLEWMGWINTYTGESTYADDFEGRFVFSMDTSASTAYLQISSLKAEDTAVYYCARESLYDYYSMDYWGQGTTVTVSSLGGGSGRTVAAPSVFIFPPSDEQLKSGTASVVCLLNNFYPREAKVQWKVDNALQSGNSQESVTEQDSKDSTYSLSSTLTLSKADYEKHKVYACEVTHQGLSSPVTKSFNRGEC",–,–,–,–,–,–,0.925 µM,3.27 µM,2.95 µM,3.22 µM,1.65 µM
